Results from IntAct's records for PubMed 21460856.

Assays:
atm_human ATM = atm_human ATM (UniProt Q13315)
mdm2_human MDM2 = mdm2_human MDM2 (UniProt Q00987)
Sequence of mdm2_human MDM2 (Q00987 whole entry, looked up): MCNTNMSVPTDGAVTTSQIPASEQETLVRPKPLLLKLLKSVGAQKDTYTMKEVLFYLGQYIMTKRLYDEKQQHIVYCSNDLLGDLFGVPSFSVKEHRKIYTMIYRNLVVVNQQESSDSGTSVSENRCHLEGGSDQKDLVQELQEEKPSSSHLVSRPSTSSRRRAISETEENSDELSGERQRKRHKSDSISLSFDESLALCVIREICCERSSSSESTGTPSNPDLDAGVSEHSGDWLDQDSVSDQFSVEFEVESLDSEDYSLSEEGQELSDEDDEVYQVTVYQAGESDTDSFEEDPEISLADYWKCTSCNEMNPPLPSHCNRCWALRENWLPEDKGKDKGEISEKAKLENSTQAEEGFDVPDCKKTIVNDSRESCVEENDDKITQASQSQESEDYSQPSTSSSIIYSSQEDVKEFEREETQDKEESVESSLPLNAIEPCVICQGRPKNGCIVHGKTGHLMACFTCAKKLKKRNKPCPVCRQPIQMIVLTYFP

Sequence of atm_human ATM (Q13315 whole entry): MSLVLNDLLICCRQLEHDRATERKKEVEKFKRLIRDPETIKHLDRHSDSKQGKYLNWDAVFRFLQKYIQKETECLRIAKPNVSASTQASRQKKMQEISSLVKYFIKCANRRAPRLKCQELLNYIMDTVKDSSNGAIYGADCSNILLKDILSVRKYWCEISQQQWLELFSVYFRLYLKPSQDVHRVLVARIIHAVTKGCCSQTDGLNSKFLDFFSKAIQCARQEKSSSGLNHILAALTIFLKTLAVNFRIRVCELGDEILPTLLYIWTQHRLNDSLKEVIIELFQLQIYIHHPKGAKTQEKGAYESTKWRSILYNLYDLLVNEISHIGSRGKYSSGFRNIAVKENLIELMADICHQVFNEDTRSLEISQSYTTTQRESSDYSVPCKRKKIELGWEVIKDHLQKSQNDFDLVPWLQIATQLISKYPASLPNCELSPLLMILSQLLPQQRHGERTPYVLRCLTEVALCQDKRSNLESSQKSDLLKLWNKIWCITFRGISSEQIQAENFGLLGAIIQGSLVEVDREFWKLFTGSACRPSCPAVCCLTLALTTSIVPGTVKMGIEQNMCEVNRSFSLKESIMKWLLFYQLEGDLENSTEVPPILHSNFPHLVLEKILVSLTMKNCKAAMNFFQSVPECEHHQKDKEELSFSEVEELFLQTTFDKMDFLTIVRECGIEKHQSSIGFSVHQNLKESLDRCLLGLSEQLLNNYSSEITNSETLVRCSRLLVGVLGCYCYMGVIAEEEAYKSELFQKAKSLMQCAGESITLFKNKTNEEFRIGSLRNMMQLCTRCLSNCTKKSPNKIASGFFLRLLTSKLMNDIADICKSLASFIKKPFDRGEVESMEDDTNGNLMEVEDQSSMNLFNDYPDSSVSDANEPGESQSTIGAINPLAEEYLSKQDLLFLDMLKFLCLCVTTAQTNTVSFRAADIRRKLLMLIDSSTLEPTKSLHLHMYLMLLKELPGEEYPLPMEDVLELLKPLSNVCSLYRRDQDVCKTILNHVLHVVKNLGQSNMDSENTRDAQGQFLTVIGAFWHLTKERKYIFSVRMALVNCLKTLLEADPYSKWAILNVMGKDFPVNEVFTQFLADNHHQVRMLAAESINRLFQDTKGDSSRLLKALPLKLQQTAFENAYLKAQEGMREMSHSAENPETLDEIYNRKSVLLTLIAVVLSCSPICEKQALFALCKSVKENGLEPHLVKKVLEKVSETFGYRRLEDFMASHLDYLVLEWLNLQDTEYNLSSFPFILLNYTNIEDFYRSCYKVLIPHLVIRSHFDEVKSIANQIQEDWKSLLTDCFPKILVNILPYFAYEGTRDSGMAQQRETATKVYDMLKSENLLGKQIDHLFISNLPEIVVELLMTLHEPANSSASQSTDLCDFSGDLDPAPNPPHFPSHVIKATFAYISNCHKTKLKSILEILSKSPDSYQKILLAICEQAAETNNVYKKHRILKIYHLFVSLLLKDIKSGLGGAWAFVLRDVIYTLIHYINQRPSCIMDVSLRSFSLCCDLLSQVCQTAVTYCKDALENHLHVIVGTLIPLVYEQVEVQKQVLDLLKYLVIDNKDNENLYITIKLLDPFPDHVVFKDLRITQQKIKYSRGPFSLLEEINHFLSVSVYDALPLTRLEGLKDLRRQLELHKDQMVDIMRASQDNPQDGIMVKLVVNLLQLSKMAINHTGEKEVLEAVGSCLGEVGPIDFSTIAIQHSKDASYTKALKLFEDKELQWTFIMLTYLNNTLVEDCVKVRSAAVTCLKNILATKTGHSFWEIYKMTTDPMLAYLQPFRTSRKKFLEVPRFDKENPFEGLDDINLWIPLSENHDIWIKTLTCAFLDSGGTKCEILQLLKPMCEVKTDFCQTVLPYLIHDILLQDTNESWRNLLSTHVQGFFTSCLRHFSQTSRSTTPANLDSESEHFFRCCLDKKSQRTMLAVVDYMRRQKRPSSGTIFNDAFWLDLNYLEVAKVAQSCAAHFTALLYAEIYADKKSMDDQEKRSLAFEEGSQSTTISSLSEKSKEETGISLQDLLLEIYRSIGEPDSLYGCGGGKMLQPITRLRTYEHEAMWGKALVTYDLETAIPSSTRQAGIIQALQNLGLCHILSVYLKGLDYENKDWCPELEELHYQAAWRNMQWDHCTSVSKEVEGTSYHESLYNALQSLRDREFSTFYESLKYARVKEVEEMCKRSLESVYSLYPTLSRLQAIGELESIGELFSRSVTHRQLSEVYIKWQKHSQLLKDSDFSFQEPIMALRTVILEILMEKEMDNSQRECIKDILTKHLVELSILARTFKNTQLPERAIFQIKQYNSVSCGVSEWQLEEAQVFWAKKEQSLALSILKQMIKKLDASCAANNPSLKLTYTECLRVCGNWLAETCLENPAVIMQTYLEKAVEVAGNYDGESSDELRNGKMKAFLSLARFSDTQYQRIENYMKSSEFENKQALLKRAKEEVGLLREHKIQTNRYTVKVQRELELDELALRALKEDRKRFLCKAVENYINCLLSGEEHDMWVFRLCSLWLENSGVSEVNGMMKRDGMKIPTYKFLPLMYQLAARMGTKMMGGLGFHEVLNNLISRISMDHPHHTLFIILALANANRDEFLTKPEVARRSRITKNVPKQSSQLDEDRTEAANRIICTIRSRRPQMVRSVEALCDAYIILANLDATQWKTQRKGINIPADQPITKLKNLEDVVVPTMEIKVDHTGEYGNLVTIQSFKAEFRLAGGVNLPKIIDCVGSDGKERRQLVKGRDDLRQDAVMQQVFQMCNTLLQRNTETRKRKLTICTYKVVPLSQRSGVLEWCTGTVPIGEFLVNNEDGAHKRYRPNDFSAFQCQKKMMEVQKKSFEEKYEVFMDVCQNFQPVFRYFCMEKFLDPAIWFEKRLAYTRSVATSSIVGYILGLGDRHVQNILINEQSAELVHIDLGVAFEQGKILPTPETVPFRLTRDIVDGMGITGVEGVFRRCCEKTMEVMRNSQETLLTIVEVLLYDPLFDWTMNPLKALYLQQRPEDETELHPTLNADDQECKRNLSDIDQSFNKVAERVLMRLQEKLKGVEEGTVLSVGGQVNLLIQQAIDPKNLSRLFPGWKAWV

Substance: Serine-protein kinase ATM (Homo sapiens), Q13315 D2870A;N2875K
- effect of a mutation on the interaction (PPP2R5C, Q13362-1): disrupting interaction

Substance: Serine/threonine-protein phosphatase 2A 56 kDa regulatory subunit gamma isoform (Homo sapiens) (from UniProt Q13362-1) S520A
- effect of a mutation on the interaction (atm_human ATM): disrupting interaction

Substance: Serine/threonine-protein phosphatase 2A 56 kDa regulatory subunit gamma isoform (Homo sapiens) (from UniProt Q13362) S520D
- effect of a mutation on the interaction (mdm2_human MDM2): disrupting interaction
